# Test results taken from paper PMC4414194.
# Key:
# HDAC4 = HDAC4 (UniProt P56524); assay: anti-GFP co-IP, anti-Flag blot; conditions: reference: GATA1 wild type; sites S161,S187
# HDAC3 = HDAC3 (UniProt O15379); assay: anti-GFP co-IP, anti-Flag blot; conditions: reference: GATA1 wild type; sites S161,S187
substance,measurement,setting,value
GATA1 (from UniProt P15976) GATA1 S161A S187A,binding against the reference,HDAC4,weaker
same,binding against the reference,HDAC3,weaker
